B1: RNA-binding protein FUS (Homo sapiens), P35637 (parent)
chain: MASNDYTQQATQSYGAYPTQPGQGYSQQSSQPYGQQSYSGYSQSTDTSGYGQSSYSSYGQSQNTGYGTQSTPQGYGSTGGYGSSQSSQSSYGQQSSYPGYGQQPAPSSTSGSYGSSSQSSSYGQPQSGSYSQQPSYGGQQQSYGQQQSYNPPQGYGQQNQYNSSSGGGGGGGGGGNYGQDQSSMSSGGGSGGGYGNQDQSGGGGSGGYGQQDRGGRGRGGSGGGGGGGGGGYNRSSGGYEPRGRGGGRGGRGGMGGSDRGGFNKFGGPRDQGSRHDSEQDNSDNNTIFVQGLGENVTIESVADYFKQIGIIKTNKKTGQPMINLYTDRETGKLKGEATVSFDDPPSAKAAIDWFDGKEFSGNPIKVSFATRRADFNRGGGNGRGGRGRGGPMGRGGYGGGGSGGGGRGGFPSGGGGGGGQQRAGDWKCPNPTCENMNFSWRNECNQCKAPKPDGPGGGPGGSHMGGNYGDDRRGGRGGYDRGGYRGRGGDRGGFRGGRGGGDRGGFGPGKMDSRGEHRQDRRERPY

Variants of: B1
Settings: with smn_mouse Smn1, P97801
smn_mouse Smn1, P97801, sequence (P97801 whole entry): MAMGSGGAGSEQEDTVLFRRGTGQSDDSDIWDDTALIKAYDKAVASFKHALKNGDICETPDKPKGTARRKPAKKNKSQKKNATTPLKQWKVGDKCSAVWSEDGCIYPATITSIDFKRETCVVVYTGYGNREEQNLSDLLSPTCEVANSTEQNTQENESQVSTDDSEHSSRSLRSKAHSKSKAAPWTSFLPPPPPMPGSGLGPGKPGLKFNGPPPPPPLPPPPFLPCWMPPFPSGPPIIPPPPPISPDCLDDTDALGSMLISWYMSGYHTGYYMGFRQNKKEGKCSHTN

effect of a mutation on the interaction | Variant
increasing interaction strength | R521C
increasing interaction strength | R521H
increasing interaction strength | P525L

Variants of: B1
Settings: with smn_mouse Smn1, P97801
Remark: another data set of the same source

effect of a mutation on the interaction | Variant
with no effect | R521C

Source: IntAct's records for PubMed 23681068
